Reference: patent US6426070

B1: recombinant human eosinophil cationic protein (rhECP), baculovirus-derived, C-terminal FLAG (protein)
chain: RPPQFTRAQWFAIQHISLNPPRCTIAMRAINNYRWRCKNQNTFLRTTFANVVNVCGNQSIRCPHNRTLNNCHRSRFRVPLLHCDLINPGAQNISNCTYADRPGRRFYVVACDNRDPRDSPRYPVVPVHLDTTIDYKDDDDK

Legend:
[1] = target: recombinant human eosinophil cationic protein (rhECP), baculovirus-derived, C-terminal FLAG (human) (UniProt P12724); assay: cell-based or functional assay
[2] = target: T1, placental ribonuclease inhibitor (RI), P13489
T1 chain: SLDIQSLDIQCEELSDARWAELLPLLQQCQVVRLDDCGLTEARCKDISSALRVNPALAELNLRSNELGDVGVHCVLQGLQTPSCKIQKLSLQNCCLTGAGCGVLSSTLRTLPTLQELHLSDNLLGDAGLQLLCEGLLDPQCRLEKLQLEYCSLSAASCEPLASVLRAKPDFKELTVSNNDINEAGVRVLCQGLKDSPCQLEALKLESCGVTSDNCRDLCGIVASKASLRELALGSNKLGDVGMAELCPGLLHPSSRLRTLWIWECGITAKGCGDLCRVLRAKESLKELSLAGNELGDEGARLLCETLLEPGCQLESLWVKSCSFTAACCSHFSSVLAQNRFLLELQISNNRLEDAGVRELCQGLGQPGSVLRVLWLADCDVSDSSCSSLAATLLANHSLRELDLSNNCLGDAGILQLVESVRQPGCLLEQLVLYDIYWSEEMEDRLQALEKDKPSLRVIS

Row | Molecule | infectious units/ml RSV-B after 500 nM rhECP + 400U RI (500 nM rhECP alone: 660 +/- 28) (infectious units/ml) [1] | ribonuclease activity (pmol/min) at fixed enzyme (rhECP) and substrate (tRNA) concentrations with increasing concentrations of RI [2]
1 | placental ribonuclease inhibitor (RI) (from UniProt P13489 2-461) | 1690 | 
2 | B1 |  | These results demonstrate that rhECP is sensitive to the inhibitory effects of RI
